In the experiment the target is transforming growth factor-beta receptor 2 (TGFBR2) (human) (UniProt P37173). Briefly: cell-based or functional assay.

A value given as a limit tells only on which side of the number the result lay.

Here are results for 1 substance from patent publication US20220409663A1.

Sequence of UniProt P37173 (P37173 23-567): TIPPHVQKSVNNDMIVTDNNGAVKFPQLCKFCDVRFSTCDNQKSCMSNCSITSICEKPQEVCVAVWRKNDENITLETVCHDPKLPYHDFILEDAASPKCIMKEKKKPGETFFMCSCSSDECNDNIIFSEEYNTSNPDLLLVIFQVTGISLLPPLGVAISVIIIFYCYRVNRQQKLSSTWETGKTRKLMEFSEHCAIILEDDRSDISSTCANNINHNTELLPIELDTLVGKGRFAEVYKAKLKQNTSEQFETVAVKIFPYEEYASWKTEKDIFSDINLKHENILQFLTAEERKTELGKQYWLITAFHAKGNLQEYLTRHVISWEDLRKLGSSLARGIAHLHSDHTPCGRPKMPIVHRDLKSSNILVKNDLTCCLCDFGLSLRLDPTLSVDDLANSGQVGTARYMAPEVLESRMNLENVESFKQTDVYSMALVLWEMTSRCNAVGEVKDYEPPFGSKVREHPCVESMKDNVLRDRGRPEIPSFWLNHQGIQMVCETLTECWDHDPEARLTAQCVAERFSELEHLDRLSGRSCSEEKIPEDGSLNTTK

As for “transforming growth factor-β (TGFβ) (ligand)”, the fold change in cytokine concentration from TGF-β:vehicle treated cells (pro-inflammatory cytokine secretion, 3 days, TGF-β 10 ng/ml) (fold change (ratio)) is below 1.
